For two molecules, Kd, koff and fluorescent intensity results are on record in patent US20240425846A1.

For test [1], the target named is biotinylated human Her2 (HE2-H822R, Acro Biosystems) (human) (UniProt P04626). The test can be described thus: BLI (Octet), Her2-biotin on streptavidin tip, Fab at 20 nM, 1:1 fit; the filing doubts the fit because the response was low. In general terms: In BLI a coated tip is dipped into the sample, and binding shifts an interference pattern.
Test [2] has the same target. The test can be described thus: deep screening, equilibrium fit.
For test [3] the target is unchanged. The test can be described thus: deep screening, equilibrium fit (column DS KD (M)).
Test [4] has the same target. The test is described as follows: deep screening, equilibrium fit (column DS KD (M)). The source holds these as a separate data set.
Test [5] shares this target. The test is described as follows: deep screening, biphasic dissociation fit, phase 1.
Test [6] shares this target. The test is described as follows: deep screening, biphasic dissociation fit, phase 2.
Test [7] shares this target. The test is described as follows: flow cell kinetic dissociation, ribosome-displayed scFv, buffer wash after Her2-biotin/AF532-streptavidin.
Test [8] has the same target. The test is described as follows: flow cell equilibrium binding, ribosome-displayed scFv, 0.03-100 nM Her2-biotin and 100 nM AF532-streptavidin.
The target is the same in test [9]. The test is described as follows: deep screening ('HER2affmat'), ribosome-displayed scFv on flow cell, 5 minutes of wash after 100 nM Her2-biotin:AF532-streptavidin.

B1: G98A Fab (Fab)
VH: MQVQLVQSGAEVKKPGESLKISCKGSGYSFTSYWIAWVRQMPGKGLEYMGLIYPGDSDTKYSPSFQGQVTISVDKSVSTAYLQWSSLKPSDSAVYFCARHDVAYCSSSNCAKWPEYFQHWGQGTLVTVSSGGGGSGGGGSGGGGSQSVLTQPPSVSAAPGQKVTISCSGSSSNIGNNYVSWYQQLPGTAPKLLIYGHTNRPAGVPDRFSGSKSGTSASLAISGFRSEDEADYYCASWDYTLSGWVFGGGTKLTVLG
VL: B1 VH
Turning to B1, the Kd (in general, a measure of binding affinity in units of concentration) in [1] was found to be 46.9 nM.

B2: Her2_G98A scFv (scFv)
scFv: MQVQLVQSGAEVKKPGESLKISCKGSGYSFTSYWIAWVRQMPGKGLEYMGLIYPGDSDTKYSPSFQGQVTISVDKSVSTAYLQWSSLKPSDSAVYFCARHDVAYCSSSNCAKWPEYFQHWGQGTLVTVSSGGGGSGGGGSGGGGSQSVLTQPPSVSAAPGQKVTISCSGSSSNIGNNYVSWYQQLPGTAPKLLIYGHTNRPAGVPDRFSGSKSGTSASLAISGFRSEDEADYYCASWDYTLSGWVFGGGTKLTVLGYMASGAEFGSGGQKQAEEAAAKAAADAKAKAEADAKAAEEAAKKAAADAKKKAEA
In the case of B2, the dissociation constant Kd in test [2] was found to be 886 nM; in [3], 24 nM; in test [4], 887 nM; in test [8], 16.2 nM. Besides, the koff – broadly, the first-order rate constant of dissociation – in [5] was 7.03e-05 s⁻¹; in test [6], 0.0134 s⁻¹; in [7], 0.000567 s⁻¹. In test [9], this molecule had a fluorescent intensity at the 5-minute wash step of 190.
